According to article PMC3695523, “Reconstitution and characterization of eukaryotic N6-threonylcarbamoylation of tRNA using a minimal enzyme system” (Nucleic Acids Research, 2013):

What was measured:
[1] = biological target: the molecule itself; experiment: crystal structure; Qri7 30-407 at 10 mg/ml, 0.1 M Tris-HCl pH 7.5, 8% PEG8000, 0.2 M MgCl2, 4°C; homodimer by crystallographic symmetry
[2] = biological target: the molecule itself; experiment: AUC; sedimentation velocity, 20°C, 42 000 rpm, 0.3125, 0.0625, 0.125, 0.250, 0.5 or 1 mg/ml protein
[3] = biological target: the molecule itself; experiment: AUC; dimerization dissociation constants of the interface mutants (Supplementary Figure S5B); whether from equilibrium or velocity runs is not stated; 20°C; dimer to monomers
[4] = biological target: the molecule itself; experiment: AUC; sedimentation equilibrium, 20°C, 0.25, 0.5 and 1 mg/ml, 10 000, 12 000, 15 000 rpm; fitted to a monomer-dimer model; dimer to monomers

Protein	stoichiometry N [2]	also measured
Saccharomyces cerevisiae Qri7 (amino acids 30-407), crystallised form (enzyme, UniProt P43122 30-407, looked up, seleno-methionine (a seleno-methionine crystal data set was collected), One protomer in the asymmetric unit; the homodimer is made by crystallographic symmetry; also called scQri7; not shown: His6, N-terminal, cleaved) RKGYKVLAIETSCDDTCVSVLDRFSKSAAPNVLANLKDTLDSIDEGGIIPTKAHIHHQARIGPLTERALIESNAREGIDLICVTRGPGMPGSLSGGLDFAKGLAVAWNKPLIGVHHMLGHLLIPRMGTNGKVPQFPFVSLLVSGGHTTFVLSRAIDDHEILCDTIDIAVGDSLDKCGRELGFKGTMIAREMEKFINQDINDQDFALKLEMPSPLKNSASKRNMLSFSFSAFITALRTNLTKLGKTEIQELPEREIRSIAYQVQESVFDHIINKLKHVLKSQPEKFKNVREFVCSGGVSSNQRLRTKLETELGTLNSTSFFNFYYPPMDLCSDNSIMIGWAGIEIWESLRLVSDLDICPIRQWPLNDLLSVDGWRTDQL		binding result [1]: binds
Qri7 (30-407) I77E (enzyme, yeast (Saccharomyces cerevisiae), UniProt P43122 30-407, looked up, Qri7, S. cerevisiae, amino acids 30-407, catalytic cleft mutant; source: E. coli BL21 (DE3) CodonPlus, purified (Ni-NTA or glutathione sepharose, SEC)) RKGYKVLAIETSCDDTCVSVLDRFSKSAAPNVLANLKDTLDSIDEGGEIPTKAHIHHQARIGPLTERALIESNAREGIDLICVTRGPGMPGSLSGGLDFAKGLAVAWNKPLIGVHHMLGHLLIPRMGTNGKVPQFPFVSLLVSGGHTTFVLSRAIDDHEILCDTIDIAVGDSLDKCGRELGFKGTMIAREMEKFINQDINDQDFALKLEMPSPLKNSASKRNMLSFSFSAFITALRTNLTKLGKTEIQELPEREIRSIAYQVQESVFDHIINKLKHVLKSQPEKFKNVREFVCSGGVSSNQRLRTKLETELGTLNSTSFFNFYYPPMDLCSDNSIMIGWAGIEIWESLRLVSDLDICPIRQWPLNDLLSVDGWRTDQL	2	
Qri7 (30-407) R104A (enzyme, yeast (Saccharomyces cerevisiae), UniProt P43122 30-407, looked up, Qri7, S. cerevisiae, amino acids 30-407, dimer interface mutant; also called R104A mutant; source: E. coli BL21 (DE3) CodonPlus, purified (Ni-NTA or glutathione sepharose, SEC)) RKGYKVLAIETSCDDTCVSVLDRFSKSAAPNVLANLKDTLDSIDEGGIIPTKAHIHHQARIGPLTERALIESNAAEGIDLICVTRGPGMPGSLSGGLDFAKGLAVAWNKPLIGVHHMLGHLLIPRMGTNGKVPQFPFVSLLVSGGHTTFVLSRAIDDHEILCDTIDIAVGDSLDKCGRELGFKGTMIAREMEKFINQDINDQDFALKLEMPSPLKNSASKRNMLSFSFSAFITALRTNLTKLGKTEIQELPEREIRSIAYQVQESVFDHIINKLKHVLKSQPEKFKNVREFVCSGGVSSNQRLRTKLETELGTLNSTSFFNFYYPPMDLCSDNSIMIGWAGIEIWESLRLVSDLDICPIRQWPLNDLLSVDGWRTDQL		Kd [3]: 3000 ± 300 nM
Qri7 (30-407) S258A (enzyme, yeast (Saccharomyces cerevisiae), UniProt P43122 30-407, looked up, Qri7, S. cerevisiae, amino acids 30-407, catalytic cleft mutant; source: E. coli BL21 (DE3) CodonPlus, purified (Ni-NTA or glutathione sepharose, SEC)) RKGYKVLAIETSCDDTCVSVLDRFSKSAAPNVLANLKDTLDSIDEGGIIPTKAHIHHQARIGPLTERALIESNAREGIDLICVTRGPGMPGSLSGGLDFAKGLAVAWNKPLIGVHHMLGHLLIPRMGTNGKVPQFPFVSLLVSGGHTTFVLSRAIDDHEILCDTIDIAVGDSLDKCGRELGFKGTMIAREMEKFINQDINDQDFALKLEMPSPLKNSASKRNMLSFSFAAFITALRTNLTKLGKTEIQELPEREIRSIAYQVQESVFDHIINKLKHVLKSQPEKFKNVREFVCSGGVSSNQRLRTKLETELGTLNSTSFFNFYYPPMDLCSDNSIMIGWAGIEIWESLRLVSDLDICPIRQWPLNDLLSVDGWRTDQL	2	
Qri7 (residues 30-407), wild type, as used for analytical ultracentrifugation (enzyme, yeast (Saccharomyces cerevisiae), UniProt P43122 30-407, looked up, Qri7, S. cerevisiae, amino acids 30-407; also called wild-type Qri7; source: E. coli BL21 (DE3) CodonPlus, purified (Ni-NTA or glutathione sepharose, SEC)) RKGYKVLAIETSCDDTCVSVLDRFSKSAAPNVLANLKDTLDSIDEGGIIPTKAHIHHQARIGPLTERALIESNAREGIDLICVTRGPGMPGSLSGGLDFAKGLAVAWNKPLIGVHHMLGHLLIPRMGTNGKVPQFPFVSLLVSGGHTTFVLSRAIDDHEILCDTIDIAVGDSLDKCGRELGFKGTMIAREMEKFINQDINDQDFALKLEMPSPLKNSASKRNMLSFSFSAFITALRTNLTKLGKTEIQELPEREIRSIAYQVQESVFDHIINKLKHVLKSQPEKFKNVREFVCSGGVSSNQRLRTKLETELGTLNSTSFFNFYYPPMDLCSDNSIMIGWAGIEIWESLRLVSDLDICPIRQWPLNDLLSVDGWRTDQL	2	Kd [4]: 60 nM
Qri7 (30-407) D44A (enzyme, yeast (Saccharomyces cerevisiae), UniProt P43122 30-407, looked up, Qri7, S. cerevisiae, amino acids 30-407, catalytic cleft mutant; source: E. coli BL21 (DE3) CodonPlus, purified (Ni-NTA or glutathione sepharose, SEC)) RKGYKVLAIETSCDATCVSVLDRFSKSAAPNVLANLKDTLDSIDEGGIIPTKAHIHHQARIGPLTERALIESNAREGIDLICVTRGPGMPGSLSGGLDFAKGLAVAWNKPLIGVHHMLGHLLIPRMGTNGKVPQFPFVSLLVSGGHTTFVLSRAIDDHEILCDTIDIAVGDSLDKCGRELGFKGTMIAREMEKFINQDINDQDFALKLEMPSPLKNSASKRNMLSFSFSAFITALRTNLTKLGKTEIQELPEREIRSIAYQVQESVFDHIINKLKHVLKSQPEKFKNVREFVCSGGVSSNQRLRTKLETELGTLNSTSFFNFYYPPMDLCSDNSIMIGWAGIEIWESLRLVSDLDICPIRQWPLNDLLSVDGWRTDQL	2	
Qri7 (30-407) D43A (enzyme, yeast (Saccharomyces cerevisiae), UniProt P43122 30-407, looked up, Qri7, S. cerevisiae, amino acids 30-407, catalytic cleft mutant; source: E. coli BL21 (DE3) CodonPlus, purified (Ni-NTA or glutathione sepharose, SEC)) RKGYKVLAIETSCADTCVSVLDRFSKSAAPNVLANLKDTLDSIDEGGIIPTKAHIHHQARIGPLTERALIESNAREGIDLICVTRGPGMPGSLSGGLDFAKGLAVAWNKPLIGVHHMLGHLLIPRMGTNGKVPQFPFVSLLVSGGHTTFVLSRAIDDHEILCDTIDIAVGDSLDKCGRELGFKGTMIAREMEKFINQDINDQDFALKLEMPSPLKNSASKRNMLSFSFSAFITALRTNLTKLGKTEIQELPEREIRSIAYQVQESVFDHIINKLKHVLKSQPEKFKNVREFVCSGGVSSNQRLRTKLETELGTLNSTSFFNFYYPPMDLCSDNSIMIGWAGIEIWESLRLVSDLDICPIRQWPLNDLLSVDGWRTDQL	2	
Qri7 (30-407) K130A (enzyme, yeast (Saccharomyces cerevisiae), UniProt P43122 30-407, looked up, Qri7, S. cerevisiae, amino acids 30-407, dimer interface mutant; also called K130A mutant; source: E. coli BL21 (DE3) CodonPlus, purified (Ni-NTA or glutathione sepharose, SEC)) RKGYKVLAIETSCDDTCVSVLDRFSKSAAPNVLANLKDTLDSIDEGGIIPTKAHIHHQARIGPLTERALIESNAREGIDLICVTRGPGMPGSLSGGLDFAAGLAVAWNKPLIGVHHMLGHLLIPRMGTNGKVPQFPFVSLLVSGGHTTFVLSRAIDDHEILCDTIDIAVGDSLDKCGRELGFKGTMIAREMEKFINQDINDQDFALKLEMPSPLKNSASKRNMLSFSFSAFITALRTNLTKLGKTEIQELPEREIRSIAYQVQESVFDHIINKLKHVLKSQPEKFKNVREFVCSGGVSSNQRLRTKLETELGTLNSTSFFNFYYPPMDLCSDNSIMIGWAGIEIWESLRLVSDLDICPIRQWPLNDLLSVDGWRTDQL		Kd [3]: 2500 ± 200 nM
Qri7 (30-407) R207A (enzyme, yeast (Saccharomyces cerevisiae), UniProt P43122 30-407, looked up, Qri7, S. cerevisiae, amino acids 30-407, catalytic cleft mutant; source: E. coli BL21 (DE3) CodonPlus, purified (Ni-NTA or glutathione sepharose, SEC)) RKGYKVLAIETSCDDTCVSVLDRFSKSAAPNVLANLKDTLDSIDEGGIIPTKAHIHHQARIGPLTERALIESNAREGIDLICVTRGPGMPGSLSGGLDFAKGLAVAWNKPLIGVHHMLGHLLIPRMGTNGKVPQFPFVSLLVSGGHTTFVLSRAIDDHEILCDTIDIAVGDSLDKCGAELGFKGTMIAREMEKFINQDINDQDFALKLEMPSPLKNSASKRNMLSFSFSAFITALRTNLTKLGKTEIQELPEREIRSIAYQVQESVFDHIINKLKHVLKSQPEKFKNVREFVCSGGVSSNQRLRTKLETELGTLNSTSFFNFYYPPMDLCSDNSIMIGWAGIEIWESLRLVSDLDICPIRQWPLNDLLSVDGWRTDQL	2	
